Test system: fatty acid substrates
Experiment: Yeast expression of the omega-3 desaturase (SDD17, sdd17 in pYX242) with exogenous fatty acid substrates, FAME/GC analysis
Assay type: cell-based, Saccharomyces cerevisiae (SC334)
Conditions: for % Conversion: 24° C.
Excerpt: To determine the substrate specificity and the class of reaction catalyzed by the SDD17-protein, sdd17 was heterologously expressed in a Saccharomyces cerevisiae (SC334). Because S. cerevisiae cannot synthesize fatty acids beyond OA (18:1n-9), it is an ideal system to use to determine enzyme activity on substrates longer than OA because no background enzyme activity will be detected. Suitable fatty acid substrates can be exogenously supplied to the host which are taken up by the cell and acted on by the expressed protein of the transformed sdd17 gene.
Clone pRSP19, which contained the full-length omega-3 desaturase (sdd17) from S. diclina cloned into pYX242, was transformed into Saccharomyces cerevisiae (SC334) using the “Alkali-Cation Yeast Transformation”-brand kit (BIO 101, Vista, Calif.). Transformants were selected for leucine auxotrophy on media lacking leucine (DOB [-Leu]). To detect the specific desaturase activity of these clones, transformants were grown in the presence of 50 μM of each of LA (18:2n-6), GLA (18:3n-6),
DGLA (20:3n-6), AA (20:4n-6), and adrenic acid (22:4n-6). Conversion of these exogenously supplied fatty acid substrates into a product having one additional unsaturation indicates the presence of a specific desaturase activity that is not found in the wild-type S. cerevisiae:
The negative control strain was S. cerevisiae transformed with the pYX242 vector. The experimental cultures and the control cultures were grown simultaneously and analyzed.
The cultures were vigorously agitated (250 rpm) and grown for 48 hours at 24° C. in the presence of 50 μM (final concentration) of the various substrates (see Table 3). The cells were spun down, washed once in distilled water, and the pellets resuspended in methanol; chloroform was added along with tritridecanoin (as an internal standard). These mixtures were incubated for at least an hour at room temperature, or at 4° C. overnight. The chloroform layer was extracted and filtered through a Whatman filter with 1 gm anhydrous sodium sulfate to remove particulate matter and residual water. The organic solvents were evaporated at 40° C. under a stream of nitrogen. The extracted lipids were then converted to fatty acid methyl esters (FAME) for gas chromatography analysis (GC) by adding 2 ml 0.5 N potassium hydroxide in methanol to a closed tube. The samples were heated to 95° C.-100° C. for 30 minutes and cooled to room temperature. Approximately 2 ml 14% borontrifluoride in methanol was added and the heating repeated. After the extracted lipid mixture cooled, 2 ml of water and 1 ml of hexane were added to extract the FAME for analysis by GC. The percent conversion was calculated using the formula: […]
(i.e. 15° C.). Here, 50 μM of exogenous substrate was added to the transformants and the cultures were grown for 48 hours at 15° C. Fatty acid analysis was carried out as described above. The overall uptake of substrate by S. cerevisiae at 15° C. was lower than that seen at 24° C. (compare Table 3 & Table 4). However the percent conversion of substrate to product by the enzyme increased at 15° C. Since the presence of lower concentration of exogenous fatty acid substrate seemed to improve the activity of the enzyme, it is possible that fatty acid substrates at high concentrations may exert a feed-back inhibition on this enzyme. […]

B1: SDD17: omega-3 desaturase of 358 amino acid residues (SEQ ID NO: 26) encoded by sdd17 from Saprolegnia diclina (ATCC 56851) (protein, listed as Saprolegnia diclina)
chain: MTEDKTKVEFPTLTELKHSIPNACFESNLGLSLYYTARAIFNASASAALLYAARSTPFIADNVLLHALVCATYIYVQGVIFWGFFTVGHDCGHSAFSRYHSVNFIIGCIMHSAILTPFESWRVTHRHHHKNTGNIDKDEIFYPHRSVKDLQDVRQWVYTLGGAWFVYLKVGYAPRTMSHFDPWDPLLLRRASAVIVSLGVWAAFFAAYAYLTYSLGFAVMGLYYYAPLFVFASFLVITTFLHHNDEATPWYGDSEWTYVKGNLSSVDRSYGAFVDNLSHHIGTHQVHHLFPIIPHYKLNEATKHFAAAYPHLVRRNDEPIITAFFKTAHLFVNYGAVPETAQIFTLKESAAAAKAKSD
15° C. vs 24° C., 50 μM substrate, 48 hours
  percent conversion of substrate to product at 15° C. compared with 24° C.: increased
20:3 n-6 (DGLA) to 20:4 n-3 (ETA) (Delta 17), 48 hours, 50 μM substrate
  % Conversion: 5%
20:4 n-6 (AA) to 20:5 n-3 (EPA) (Delta 17), 48 hours, 50 μM substrate
  % Conversion: 13.8%
22:4 n-6 (adrenic acid) to 22:5 n-3 (DPA) (Delta 19), 48 hours, 50 μM substrate
  % Conversion: 4%
Under the conditions tested
  desaturation of C18 omega-6 fatty acyl substrates to their corresponding omega-3 fatty acids: did not desaturate
